Test results taken from article doi:10.1101/2022.04.18.488652 (bioRxiv, 2022).

B1: NaKΔ18 (domain or fragment, B. cereus)
chain: WKDKEFQVLFVLTILTLISGTIFYSTVEGLRPIDALYFSVVTLTTVGDGNFSPQTDFGKIFTILYIFIGIGLVFGFIHKLAVNVQLPSILSNRKKE
B2: NaKΔ18 L61T (domain or fragment, B. cereus, UniProt Q81HW2 19-114, looked up)
chain: WKDKEFQVLFVLTILTLISGTIFYSTVEGLRPIDALYFSVVTTTTVGDGNFSPQTDFGKIFTILYIFIGIGLVFGFIHKLAVNVQLPSILSNRKKE
B3: NaKΔ18 L35A (domain or fragment, B. cereus, UniProt Q81HW2 19-114, looked up)
chain: WKDKEFQVLFVLTILTAISGTIFYSTVEGLRPIDALYFSVVTLTTVGDGNFSPQTDFGKIFTILYIFIGIGLVFGFIHKLAVNVQLPSILSNRKKE
B4: NaKΔ18 L61A (domain or fragment, B. cereus, UniProt Q81HW2 19-114, looked up)
chain: WKDKEFQVLFVLTILTLISGTIFYSTVEGLRPIDALYFSVVTATTVGDGNFSPQTDFGKIFTILYIFIGIGLVFGFIHKLAVNVQLPSILSNRKKE
B5: NaKΔ18 L35A+L61A (domain or fragment, B. cereus, UniProt Q81HW2 19-114, looked up)
chain: WKDKEFQVLFVLTILTAISGTIFYSTVEGLRPIDALYFSVVTATTVGDGNFSPQTDFGKIFTILYIFIGIGLVFGFIHKLAVNVQLPSILSNRKKE

Target: the molecule itself
Assay: SEC

Stoichiometry N, 4:
B1, B2, B3, B4, B5
